From patent US20240336696A1 (PXRADIA MAB TECHNOLOGIES, published 2024)

Target: T1, CD20 on human B-cell lines (JOK-1, Raji, Ramos) (human, UniProt P11836 1-297)
T1 sequence (looked up): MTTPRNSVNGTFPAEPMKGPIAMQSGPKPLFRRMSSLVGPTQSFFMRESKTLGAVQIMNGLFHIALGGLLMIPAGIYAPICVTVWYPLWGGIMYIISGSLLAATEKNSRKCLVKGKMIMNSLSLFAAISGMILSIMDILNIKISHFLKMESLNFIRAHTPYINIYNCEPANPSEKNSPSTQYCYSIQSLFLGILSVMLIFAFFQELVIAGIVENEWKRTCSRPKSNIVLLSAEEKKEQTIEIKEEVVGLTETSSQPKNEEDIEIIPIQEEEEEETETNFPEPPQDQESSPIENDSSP
Experiment: cell-based or functional assay

percent of apoptotic cells against chRituximab, Raji cells, 5 µg/mL: 2.5 fold
B1: chRituximab-HD (chimeric HD antibody identical to chRituximab except for the addition of the HD peptide rs-T15) (antibody, human IgG1, kappa)
heavy: not shown
light: QIVLSQSPAILSASPGEKVTMTCRASSSVSYIHWFQQKPGSSPKPWIYATSNLASGVPVRFSGSGSGTSYSLTISRVEAEDAATYYCQQWTSNPPTFGGGTKLEIKRTVAAPSVFIFPPSDEQLKSGTASVVCLLNNFYPREAKVQWKVDNALQSGNSQESVTEQDSKDSTYSLSSTLTLSKADYEKHKVYACEVTHQGLSSPVTKSFNRGEC
